In the RNAGym collection of RNA variant scans (doi:10.7554/elife.80360) one finds self-cleavage data, which are given here for 167 variants.

Sequences and labels used below:
B1: Hammerhead Ribozyme (parent)
chain: ACCGGAUGUGCUUUCCGGUCUGAUGAGUCCGUGAGGACGAAACAG

This series covers variants of B1. As to the kind of experiment: self-cleavage, relative activity (ratio to wild type); higher = more cleavage; co-transcriptional.
Take U13A A37G: the self-cleavage came out at 1.15. Next, U12G C30U: 0.983; G33U A42C: 0.366. As to C20U C38A, the self-cleavage was determined as 0.336.

As to C3G G31C, the self-cleavage came out at 0.527. Then U28C A44C, with 0.497. With C43G A44C, the self-cleavage stood at 0.464. Next, C15A A42C: 0.291. Then C3A U21C, with 0.376; and A1C U32G, with 0.302.

For the variant C15G C43U, the self-cleavage came out at 0.248. Turning to U9A A23C, the self-cleavage is 0.46.

In the case of C3A G22U, the self-cleavage was 0.291. Next, C11U G35U: 0.846.

With G10A U32A, the self-cleavage worked out at 1.14. Then A6U U28C, with 0.638; and G5U A41G, with 0.316; and G5U G10C, with 0.708. Next, U28C A40U: 0.307. Then A26U A37U, with 0.545; and G8A G39U, with 0.369; and C11G U19C, with 0.532.

C11G U19G: the self-cleavage stood at 0.42. With C29U G39A, the self-cleavage is 0.406.

Turning to G5U A34U, the self-cleavage turned out to be 0.83. Next, G5U C20A: 0.292; U28G G35C: 0.562; G22A C43U: 0.318. On to C20A A23G, for which the self-cleavage came out at 0.27.

For the variant U14G G36U, the self-cleavage came to 0.565. Then G4A U9G, with 0.423.

Consider U7C C43G, for which the self-cleavage was 0.346.

For the variant C2G C11A, the self-cleavage was determined as 0.378. Next, G4A C20A: 0.402; A26U U32C: 0.819; U7A G45A: 0.427. Then A1G U13G, with 1.97. A6C G22C: the self-cleavage was 0.296.

In the case of U7A A37U, the self-cleavage is 0.497. Then G22A U24G, with 0.363.

In the case of U9G G18U, the self-cleavage worked out at 0.4. Next, C20A A44G: 0.848. On to A23U G33A, for which the self-cleavage is 0.524. Next, U32C C43U: 0.661. As for A6U A23G, the self-cleavage turned out to be 0.249.

Turning to A6U G27A, the self-cleavage came to 0.614. Then A23U A34G, with 0.358; and C3G U19G, with 0.306; and U28C C43A, with 0.289. Then C20U U32C, with 0.395.

For U12A A37C, the self-cleavage is 1.2. For the variant U12C C20U, the self-cleavage stood at 0.395.

Turning to C16U C29G, the self-cleavage was 0.69.

As for U21C U32A, the self-cleavage came to 0.71.

With G25A G31C, the self-cleavage was 0.326. In the case of C16G U19C, the self-cleavage is 0.344. Then A6U U21G, with 0.449; and C15G G45A, with 0.446. Then U13A C43A, with 0.254; and U24A C29A, with 0.786; and C11U A23U, with 0.338. Next, U7G U24G: 1.92; C2U G31A: 1.11. G39U G45C: the self-cleavage came out at 0.408. Then C15U C20U, with 0.627.

Consider G8A G10C, for which the self-cleavage amounted to 1.46.

With U19G G22U, the self-cleavage worked out at 0.304. Then A26G G33C, with 0.409.

Take G27U A34G: the self-cleavage was found to be 0.373. Regarding G17C A44G, the self-cleavage worked out at 0.664.

For the variant G27A G45C, the self-cleavage is 0.378.

With G4A C29G, the self-cleavage is 0.357. Then G33C A44U, with 0.512; and G8U C16G, with 0.731; and G17C U21C, with 0.275. Then G17C U21G, with 0.352; and G18C G36A, with 0.347; and U32G G33U, with 0.838. For G10C C11A, the self-cleavage came out at 1.11.

Turning to A23G C29G, the self-cleavage is 0.26. For the variant A6U G10A, the self-cleavage worked out at 0.75.

C15A C29A: the self-cleavage came to 0.457. Then G39U C43A, with 0.312. Then G31U G36U, with 0.466; and C30G A37U, with 0.358; and G39A A41U, with 0.293. Then G39C G45U, with 0.328; and G27U U28C, with 0.38. Take G17U C29G: the self-cleavage amounted to 0.591. On to C3G A26U, for which the self-cleavage came to 0.361. For the variant G25A C43A, the self-cleavage was 0.294. Next, G5U U32G: 0.367; G27C G36A: 0.392; G4A A34U: 0.49. Next, C11G A23G: 0.282; C11G A23C: 0.549.

In the case of A6C U21A, the self-cleavage is 0.475. Then U19A G33U, with 0.398; and C16G G18C, with 0.376; and C3A U24G, with 0.574. Next, G8A A34C: 0.936. As for G22C C30U, the self-cleavage turned out to be 0.36.

In the case of U13G C15U, the self-cleavage came to 0.763.

Take G39A A40U: the self-cleavage was 0.291. In the case of A23G G39A, the self-cleavage worked out at 0.301. With A1G U7A, the self-cleavage came out at 1.31. Next, G4C U28G: 0.326. Regarding C20G G33C, the self-cleavage stood at 0.327. Next, C20G G33U: 0.367. Then A1U G45A, with 0.409; and A26C A42G, with 0.371. For the variant G18A G35A, the self-cleavage stood at 0.536. Next, G5A U32C: 1.15; A34G G36U: 0.419. Next, A23C G27C: 0.328. Then C20A A26U, with 0.342; and U9A A34G, with 0.751. Regarding U7A U14G, the self-cleavage was determined as 1.14. Then A6C C43G, with 0.294; and A6C A26U, with 0.337; and C2U G18C, with 0.869. Next, G5U U14C: 0.837; G8U C29U: 1.01; G5A U24A: 1.21.

On to G4C G10U, for which the self-cleavage worked out at 0.722. Next, C29A A41U: 0.301. Next, G5C G33U: 0.736; G5A C29A: 0.445; A6C G25U: 0.219.

Consider C2G G35A, for which the self-cleavage came out at 0.271. Next, U14C G31A: 0.918.

Regarding U9G C16A, the self-cleavage was found to be 0.835. Take G39A C43G: the self-cleavage worked out at 0.264.

On to A1G G45C, for which the self-cleavage stood at 1.01.

Turning to G10U G45C, the self-cleavage was found to be 0.828. Next, U14C U19A: 0.362. Next, G10C C20G: 0.4. Then C29U C43A, with 0.337.

Take U12A C15U: the self-cleavage came out at 0.668. Then U7A G18A, with 0.539; and U14C C43U, with 0.337; and G18C G25A, with 0.328.

As to U12G G31A, the self-cleavage came to 1.2.

For C15U G36A, the self-cleavage worked out at 0.734. Then C2A G22A, with 0.364. Then A26C G31C, with 0.411; and U9G A34C, with 0.579; and G18U G45A, with 0.379. Next, U21C U28A: 0.573; U19A A37C: 0.43. Turning to G17A U24A, the self-cleavage worked out at 0.704. For A1C C29G, the self-cleavage was determined as 0.341.

Turning to A23C C43U, the self-cleavage turned out to be 0.325.

For C29G A34U, the self-cleavage came to 0.748. Then G10C C29G, with 0.638; and C15G C20A, with 0.361. Take C11G G33A: the self-cleavage was 1.11. Then A1G G8A, with 1.57. Then G17U A41C, with 0.365. Next, G18U U28C: 0.351; A1G G36U: 1.02.

For U21C C43A, the self-cleavage was 0.216. Next, C29U A42C: 0.326; A23U U24C: 0.45; U9A A26G: 0.368. Next, U12A C38A: 0.807; A6U U13A: 0.747.
